Measurements: patent US20250136718A1 (MABWELL THERAPEUTICS, published 2025)

T1: TMPRSS6 expressed in transfected HepG2 cells (HAMP-luciferase reporter assay) (UniProt Q8IU80 1-811, limits assumed)
T1 sequence (looked up): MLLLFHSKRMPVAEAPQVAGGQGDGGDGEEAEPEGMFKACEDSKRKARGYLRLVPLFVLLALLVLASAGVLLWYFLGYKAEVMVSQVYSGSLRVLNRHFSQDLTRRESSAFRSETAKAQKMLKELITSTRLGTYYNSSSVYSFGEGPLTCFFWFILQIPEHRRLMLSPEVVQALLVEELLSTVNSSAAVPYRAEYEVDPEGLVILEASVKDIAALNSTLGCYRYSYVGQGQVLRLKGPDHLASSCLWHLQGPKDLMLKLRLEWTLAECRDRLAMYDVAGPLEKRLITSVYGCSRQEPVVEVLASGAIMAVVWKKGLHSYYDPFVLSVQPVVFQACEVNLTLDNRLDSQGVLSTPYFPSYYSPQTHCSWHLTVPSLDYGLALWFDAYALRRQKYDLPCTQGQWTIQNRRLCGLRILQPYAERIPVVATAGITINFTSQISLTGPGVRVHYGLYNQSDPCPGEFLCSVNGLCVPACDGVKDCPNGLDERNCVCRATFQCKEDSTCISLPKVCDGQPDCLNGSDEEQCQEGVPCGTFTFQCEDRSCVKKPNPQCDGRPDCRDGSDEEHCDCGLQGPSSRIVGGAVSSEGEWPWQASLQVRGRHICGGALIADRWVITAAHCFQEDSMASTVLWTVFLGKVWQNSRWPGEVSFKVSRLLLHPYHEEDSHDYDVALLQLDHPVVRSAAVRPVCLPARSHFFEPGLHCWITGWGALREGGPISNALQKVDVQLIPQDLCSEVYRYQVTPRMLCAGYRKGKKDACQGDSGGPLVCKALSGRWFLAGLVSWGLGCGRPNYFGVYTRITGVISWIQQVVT

T2: matriptase-3 (TMPRSS7) over-expressed in HEK293T cells (human, UniProt Q7RTY8 1-843)
T2 sequence: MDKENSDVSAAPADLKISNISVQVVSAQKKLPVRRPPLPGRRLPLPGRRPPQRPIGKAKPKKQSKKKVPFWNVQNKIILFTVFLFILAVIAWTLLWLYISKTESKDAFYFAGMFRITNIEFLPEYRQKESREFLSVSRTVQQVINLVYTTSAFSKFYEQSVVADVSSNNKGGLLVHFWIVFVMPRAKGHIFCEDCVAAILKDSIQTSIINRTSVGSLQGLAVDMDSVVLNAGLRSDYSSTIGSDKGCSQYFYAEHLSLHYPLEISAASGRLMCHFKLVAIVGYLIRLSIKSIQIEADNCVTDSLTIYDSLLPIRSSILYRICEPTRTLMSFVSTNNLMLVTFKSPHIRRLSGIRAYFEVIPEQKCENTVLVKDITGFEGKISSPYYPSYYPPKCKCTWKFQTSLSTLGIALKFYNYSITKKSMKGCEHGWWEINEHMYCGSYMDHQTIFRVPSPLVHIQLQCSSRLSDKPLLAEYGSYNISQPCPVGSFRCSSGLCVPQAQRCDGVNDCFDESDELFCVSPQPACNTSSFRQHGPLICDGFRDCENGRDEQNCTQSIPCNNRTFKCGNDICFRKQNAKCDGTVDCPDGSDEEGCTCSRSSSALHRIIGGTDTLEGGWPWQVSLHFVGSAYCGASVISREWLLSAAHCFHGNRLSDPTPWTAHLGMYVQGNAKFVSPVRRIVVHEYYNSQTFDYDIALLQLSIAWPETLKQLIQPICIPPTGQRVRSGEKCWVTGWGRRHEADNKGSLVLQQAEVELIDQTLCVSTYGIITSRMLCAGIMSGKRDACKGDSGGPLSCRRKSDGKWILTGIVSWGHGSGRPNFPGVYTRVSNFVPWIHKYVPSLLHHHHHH

B1: humanized anti-TMPRSS6 antibody variant hzMWTx-003 Var (antibody, human IgG1, kappa, L234A L235A, V domains shown)
VH: QVQLVQSGAEVKKPGASVKVSCKASGFNIEDYYMHWVRQAPGQRLEWMGRIDPEDAETTYSPKFQGRVTIIPDTSANTAYMELSSLRSEDTAVYYCARSIYLDPMDYWGQGTLVTVSS
VL: DIQMTQSPKSLSASVGDRVTITCRASQDVTTALAWYQQKPGQSPKLLIYWATTRHSGVPSRFSGSGSGTDFTLTISSLQPEDFATYYCQQHYSTPYTFGQGTKLEIKR
notes: Human IgG1 / kappa
B2: humanized anti-TMPRSS6 antibody variant hzMWTx-002 Var (antibody, human IgG1, kappa, N297A, V domains shown)
VH: EVQLVQSGAEVKKPGASVKVSCKASGFNIKDYYIHWVRQATGQGLEWMGRIDPEDAESEYAPKFQGRVTITADTSTDTAYMELSSLRSEDTAVYYCTRGDSMMVTYFDYWGQGTLVTVSS
VL: DIQMTQSPSSLSASVGDRVTITCKASQDVSTAVAWYQQKPGKAPKLLIYWAFTRHTGVPSRFSGSGSGTDYALTISSLQPEDFATYYCQQHYRSPWTFGGGTKVEIKR
notes: Human IgG1 / kappa
B3: humanized anti-TMPRSS6 antibody variant hzMWTx-001 Var (antibody, human IgG1, kappa, N297A, V domains shown)
VH: EVQLVQSGAEVKKPGASVKVSCKASGYTFTSYWITWVRQAPGQRLEWIGNIYPGSGSTYYNEKFKSKATITRDTSSRTAYMELSSLRSEDTAVYYCAPYDADYAMDYWGQGTLVTVSS
VL: DIQMTQSPSSLSASVGDRVTITCKASQDISNYLSWFQQKPGKAPKLLIYRANRLVEGVPSRFSGSGSGTDFTLTISSLQPEDFATYFCLQYDEFPLTFGGGTKVEIKR
notes: Human IgG1 / kappa
B4: MWTx-002 anti-TMPRSS6 monoclonal antibody (antibody, mouse IgG2b, kappa, V domains shown)
VH: EVQLQQSGAELVKPGASVKLSCTASGFNIKDYYIHWVKERTEQGLEWFGRIDPEDGESEYAPKFQGKATLTADTSSNTAYLQLSSLTSEDTAVYYCTRGDSMMVTYFDYWGQGTTLTVSS
VL: DIVMTQSHKFMSTSVGDRVSITCKASQDVSTAVAWYQQKPGQSPKLLIYWAFTRHTGVPDRFTSTGSGTDYALTISSVQAEDLALYYCQQHYRSPWTFGGGTKLEIKR
notes: Mouse monoclonal antibody from hybridoma (ATCC PTA-126760)
B5: MWTx-001 anti-TMPRSS6 monoclonal antibody (antibody, mouse IgG2a, kappa, V domains shown)
VH: QVQLQQPGAELAKPGASVKMSCKASGYTFTSYWITWVKQRPGQDLEWIGNIYPGSGSTYYNEKFKSKATLTVDTSSRTAYMQLSSLTSADSAVYYCAPYDSDYAMDYWGQGTSVTVSS
VL: DIKMTQSPSSMYASLGERVTITCKASQDINNYLSWFQQKPGKSPKTLIYRANRLVDGVPSRVSGSGSGQDYSLTISSLEYEDVGIYFCLQYDEFPLTFGAGTKLELKR
notes: Mouse monoclonal antibody from hybridoma (ATCC PTA-126759)
B6: MWTx-003 anti-TMPRSS6 monoclonal antibody (antibody, mouse IgG2b, kappa, V domains shown)
VH: EVQLQQSGAELVKPGASVKLSCTASGFNIEDYYIHWVKERTEQGLEWIGRIDPEDGETTYAPQFQGKATIIPDTSSNTAYMQLSSLTSEDAAVYYCARSIYLDPMDYWGQGTSVTVSS
VL: DIVMTQSHKFMSTSVGDRVSITCKASQDVTTAVAWYQQKPGQSPKILIYWATTRHTGVPDRFTGSISGTTYILTISSVQAEDLALYYCQQHYSTPYTFGGGTKLEIKR
notes: Mouse monoclonal antibody from hybridoma (ATCC PTA-126761); The recombinant version r4K12B has the same HC and LC; also called r4K12B; recombinant MWTx-003

target: T1, TMPRSS6 expressed in transfected HepG2 …; test: cell-based or functional assay

| Binder | EC50 of the increase of HAMP promoter activity (HAMP-luciferase reporter assay, HepG2 cells expressing TMPRSS6, hBMP6) |
| --- | --- |
| B1 | 0.3 µg/mL |
| B2 | 0.3 µg/mL |
| B3 | 0.8 µg/mL |
| B4 | 1 µg/mL |
| B5 | 3 µg/mL |
| B6 | 2 µg/mL |

target: T2, matriptase-3 (TMPRSS7) over-expressed …; test: FACS on permeabilized HEK293T cells over-expressing matriptase-3 (TMPRSS7)
Excerpt: To determine if anti-TMPRSS6 antibodies bind to homologous matriptases, HEK293T cells over-expressing matriptase (ST14) (SEQ ID NO: 100) (FIGS. 5B, 5E, 5H, 5K, 5N, 5Q), and HEK293T cells over-expressing matriptase-3 (TMPRSS7) (SEQ ID NO: 101) (FIGS. 5C, 5F, 5I, 5L, 5O, 5R) were collected (generated in house). HEK293T cells stably expressing human TMPRSS6 (matriptase-2) (SEQ ID NO: 97) (generated by LakePharma Inc as described above, FIGS. 5A, 5D, 5G, 5J, 5M, 5P) were used as a positive control and HEK293T cells (FIGS. 5A-5R) were used as a negative control (as described above). Cells were blocked and permeabilized with dPBS+3% BSA+0.1% Tween-20 before incubation with various anti-TMPRSS6 antibodies diluted in dPBS+3% BSA+0.1% Tween-20. Cells were incubated with anti-TMPRSS6 antibodies and their humanized variants at a concentration of roughly 1 μg/ml for 1 hr. After incubation, cells were washed with dPBS and incubated with goat anti-mouse IgG conjugated with AlexaFluor-488 (Invitrogen, FIGS. 5A-5I) or goat anti-human IgG conjugated with Allophycocyanin (APC) (Jackson Immuno Research, FIGS. 5J-5R) as a 2° antibody. At last, cells were washed with dPBS and re-suspended with dPBS+1 mM EDTA, and then subjected to FACS analysis using a NOVOCYTE® Flow Cytometer. Bound antibody was determined by excitation at 488 nm and measurement of emission (FITC-A) at 530 nm (FIGS. 5A-5I) or by excitation at 640 nm and measurement of emission (APC-A) at 675 nm (FIGS. 5J-5R). Results for these assays are shown in histogram plots in FIGS. 5A-5R.

| Binder | binding result |
| --- | --- |
| B1 | no binding (tested: roughly 1 µg/ml) |
| B2 | no binding (tested: roughly 1 µg/ml) |
| B3 | no binding (tested: roughly 1 µg/ml) |
| B4 | no binding (tested: roughly 1 µg/ml) |
| B5 | no binding (tested: roughly 1 µg/ml) |
| B6 | no binding (tested: roughly 1 µg/ml) |
